Where a chain is given by its changes, count along the chain named. Numbers in names are those of the source. Ends that are not written are not given here.
T1: FAT domain of FAK (hFAK904-1052 WT) (Homo sapiens, UniProt Q05397)
T1 construct: Expression plasmids for FAT (hFAK904-1052 WT and mutants H14, H23 and H14-23); 6xHis (TEV cleavable) (N, cleaved yes); made in house; host or cells: E. coli BL21(DE3)
T1 sequence (Q05397 904-1052): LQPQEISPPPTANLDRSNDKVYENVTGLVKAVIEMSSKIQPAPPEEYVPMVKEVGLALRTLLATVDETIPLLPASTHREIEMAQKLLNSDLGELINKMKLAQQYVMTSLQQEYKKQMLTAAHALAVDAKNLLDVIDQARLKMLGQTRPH

T2: FAT-Y925E phospho-mimetic mutant (human, UniProt Q05397 904-1052, Y925E)
T2 sequence: T1 sequence (Q05397 904-1052) with Y22E

T3: FAT-Y925F phosphodeficient mutant (human, UniProt Q05397 904-1052, Y925F)
T3 sequence: T1 sequence (Q05397 904-1052) with Y22F

T4: FAT-H14 (hFAK904-1052 with I936A, H1025A, K1032A) (human, UniProt Q05397 904-1052, I936A | H1025A | K1032A)
T4 sequence: T1 sequence (Q05397 904-1052) with I33A, H122A, K129A

T5: FAT-H23 (hFAK904-1052 with K955A, R962A, I998A) (human, UniProt Q05397 904-1052, K955A | R962A | I998A)
T5 sequence: T1 sequence (Q05397 904-1052) with K52A, R59A, I95A

T6: FAT domain of Focal Adhesion Kinase, wild type (hFAK904-1052) (human, UniProt Q05397 904-1052)
T6 chain: T1 sequence (Q05397 904-1052)

T7: paxillin LD2/4 peptide (LD2 and LD4 motifs separated by a designed linker) (FITC label (fluorescence anisotropy))
T7 chain: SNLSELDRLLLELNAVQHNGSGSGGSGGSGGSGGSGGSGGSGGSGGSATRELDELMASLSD

B1: paxillin LD2/4 peptide (LD2 and LD4 motifs separated by a designed linker) (peptide)
chain: T7 chain
modifications: also: FITC label, position not given here
B2: FAT domain of Focal Adhesion Kinase, wild type (hFAK904-1052) (domain or fragment, human, UniProt Q05397 904-1052, looked up)
chain: T1 sequence (Q05397 904-1052)
notes: focal adhesion kinase (FAK), human, FAT domain, residues 904-1052 (hFAK904-1052); also called FAT-WT; source: E. coli BL21(DE3), purified (His-Trap, TEV digest, Source 15Q, Ni-NTA flow-through, Superdex200); not shown: His6, N-terminal, cleaved
B3: FAT-H14 (hFAK904-1052 with I936A, H1025A, K1032A) (domain or fragment)
chain: T1 sequence (Q05397 904-1052) with I33A, H122A, K129A

How the values were obtained:
[1] = target: T8, vinculin tail domain (Vin-T, hVinculin891-1066) (Homo sapiens, UniProt P18206); test: Fluorescence anisotropy binding to vinculin tail domain; conditions: 25 nM FITC labelled peptide, pH7.5, 22 °C, one-site binding model, 4 measurements, read-out: Apparent KD for vinculin tail domain (Vin-T)
T8 construct: Vin-FL (hVinculin1-1066) and Vin-T (hVinculin891-1066) were ordered from GenScript; 6xHis (TEV cleavable) (N, cleaved yes); made in house; host or cells: E. coli BL21(DE3)
Text: (§1) Expression plasmids for FAT (hFAK904-1052 WT and mutants H14, H23 and H14-23), Vin-FL (hVinculin1-1066) and Vin-T (hVinculin891-1066) were ordered from GenScript in the pET28(+) vector, adding a TEV cleavable N-terminal 6xHis tag to the expressed proteins. Mutant FAT-H14 contains the mutations I936A, H1025A, K1032A; FAT-H23 contains the mutations K955A, R962A, I998A and FAT-14-23 contains the combined mutations I936A, K955A, R962A, I998A, H1025A, K1032A. All plasmids were introduced into E.coli strain BL21(DE3) for expression. Cells were grown in LB media, induced with 1 mM IPTG at an OD (600 nm) of 0.6 and grown over night at 20 °C. […]
(§2) Binding curves were determined in a total of 20 µl in black 384 well plates, by titrating protein concentrations (typically up to 50 µM) at a fixed concentration of 25 nM FITC labelled LD peptides (Apeptide Co. Ltd) in 20 mM Tris pH7.5, 150 mM NaCl, 1mM TCEP. Anisotropy measurements were preformed at 22 °C on a Spark® Multimode microplate reader (Tecan) with polarizers, at an excitation wavelength of 485 nm and an emission wavelength of 535 nm (20 nm bandwidth). KD values were extracted by fitting a one-site binding model using the GraphPad Prism software, using the equation: Y = Bmax*X/(KD + X), where Y is the measured anisotropy, X the protein concentration and Bmax the maximal anisotropy value at binding saturation.

[2] = target: T1, FAT domain of FAK (hFAK904-1052 WT); test: Fluorescence anisotropy binding of FITC LD peptides to FAT-WT
Text: Expression plasmids for FAT (hFAK904-1052 WT and mutants H14, H23 and H14-23), Vin-FL (hVinculin1-1066) and Vin-T (hVinculin891-1066) were ordered from GenScript in the pET28(+) vector, adding a TEV cleavable N-terminal 6xHis tag to the expressed proteins. Mutant FAT-H14 contains the mutations I936A, H1025A, K1032A; FAT-H23 contains the mutations K955A, R962A, I998A and FAT-14-23 contains the combined mutations I936A, K955A, R962A, I998A, H1025A, K1032A. All plasmids were introduced into E.coli strain BL21(DE3) for expression. Cells were grown in LB media, induced with 1 mM IPTG at an OD (600 nm) of 0.6 and grown over night at 20 °C. Cells were pelleted at 6000 rpm and resuspended in 20 mM Tris pH8, 200 mM NaCl, 5% Glycerol, 10 mM imidazole, 2mM TCEP, 1mM PMSF supplemented with cOmplete protein inhibitor cocktail (Roche). Cells were lysed by sonication and insoluble components removed by centrifugation at 40 K for 1 h at 4 °C. Soluble lysates were cleared through 0.45 μm filters and loaded onto His-Trap affinity columns (Cytiva), washed with step gradients up to 30 mM imidazole and eluted with a gradient up to 500 mM imidazole. Peak-fractions were digested over night with TEV protease (molar ratio ~ 1: 20) at 4 °C. Proteins were diluted to 50 mM NaCl and loaded onto a Source 15Q column, washed with 20 mM Tris pH8, 50 mM NaCl, 5% Glycerol, 1mM TCEP and eluted with a gradient up to 1 M NaCl. Peak fractions were mixed with 1 ml of Ni-NTA beads to remove TEV and uncleaved protein, adding 10 mM imidazole to prevent non-specific binding. The flow-through was concentrated, loaded onto a Superdex200 16/60 column and eluted in 20 mM Tris pH8, 200 mM NaCl, 5% Glycerol, 2mM TCEP. Peak fractions were concentrated, aliquots flash frozen in LN2 and stored at -80 °C.
as §2

[3] = target: vinculin tail domain (hVinculin891-1066) (human) (UniProt P18206); test: AUC; sedimentation velocity; Vin-T at 100 µM; 20 °C, 48,000 rpm; monomer to dimer
paxillin LD1 peptide = test: fluorescence polarisation; fluorescence anisotropy; protein titrated (typically up to 50 µM) at 25 nM FITC labelled LD peptide; 20 mM Tris pH7.5, 150 mM NaCl, 1mM TCEP; 22 °C; one-site binding model; apparent KD
paxillin LD2 peptide = test: as above
[4] = target: T9, full-length vinculin (Vin-FL, hVinculin1-1066) (Homo sapiens, UniProt P18206); test: Fluorescence anisotropy binding to full-length vinculin; conditions: 25 nM FITC labelled peptide, pH7.5, 22 °C, one-site binding model, 4 measurements, read-out: Apparent KD for full-length vinculin (Vin-FL)
T9 construct: Vin-FL (hVinculin1-1066) and Vin-T (hVinculin891-1066) were ordered from GenScript; 6xHis (TEV cleavable) (N, cleaved yes); made in house; host or cells: E. coli BL21(DE3)
Text: as §1, §2

[5] = target: T2, FAT-Y925E phospho-mimetic mutant; test: FP
[6] = target: T3, FAT-Y925F phosphodeficient mutant; test: FP
[7] = target: T4, FAT-H14 (hFAK904-1052 with I936A, …); test: FP
[8] = target: T5, FAT-H23 (hFAK904-1052 with K955A, …); test: FP
[9] = target: B2; test: fluorescence polarisation; fluorescence anisotropy; protein titrated (typically up to 50 µM) at 25 nM FITC labelled LD peptide; 20 mM Tris pH7.5, 150 mM NaCl, 1mM TCEP; 22 °C; one-site binding model; apparent KD; conditions: both partners purified
[10] = target: T6, FAT domain of Focal Adhesion Kinase, …; test: FP
[11] = target: T7, paxillin LD2/4 peptide (LD2 and LD4 …); test: AUC; sedimentation velocity; FAT and Vin-T at 30 µM with 10 µM LD2/4 peptide; 20 mM Tris pH 7.5, 200 mM NaCl, 5% Glycerol, 1 mM TCEP; 20 °C, 58,000 rpm; absorbance at 280 nm; conditions: both partners purified

T8 sequence (P18206 891-1066 isoform P18206-2): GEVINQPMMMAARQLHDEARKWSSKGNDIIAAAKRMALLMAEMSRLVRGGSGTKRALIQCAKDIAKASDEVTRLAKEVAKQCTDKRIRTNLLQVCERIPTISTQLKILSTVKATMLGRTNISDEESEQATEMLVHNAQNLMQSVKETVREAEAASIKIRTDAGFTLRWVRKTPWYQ
T9 sequence (P18206 1-1066 isoform P18206-2): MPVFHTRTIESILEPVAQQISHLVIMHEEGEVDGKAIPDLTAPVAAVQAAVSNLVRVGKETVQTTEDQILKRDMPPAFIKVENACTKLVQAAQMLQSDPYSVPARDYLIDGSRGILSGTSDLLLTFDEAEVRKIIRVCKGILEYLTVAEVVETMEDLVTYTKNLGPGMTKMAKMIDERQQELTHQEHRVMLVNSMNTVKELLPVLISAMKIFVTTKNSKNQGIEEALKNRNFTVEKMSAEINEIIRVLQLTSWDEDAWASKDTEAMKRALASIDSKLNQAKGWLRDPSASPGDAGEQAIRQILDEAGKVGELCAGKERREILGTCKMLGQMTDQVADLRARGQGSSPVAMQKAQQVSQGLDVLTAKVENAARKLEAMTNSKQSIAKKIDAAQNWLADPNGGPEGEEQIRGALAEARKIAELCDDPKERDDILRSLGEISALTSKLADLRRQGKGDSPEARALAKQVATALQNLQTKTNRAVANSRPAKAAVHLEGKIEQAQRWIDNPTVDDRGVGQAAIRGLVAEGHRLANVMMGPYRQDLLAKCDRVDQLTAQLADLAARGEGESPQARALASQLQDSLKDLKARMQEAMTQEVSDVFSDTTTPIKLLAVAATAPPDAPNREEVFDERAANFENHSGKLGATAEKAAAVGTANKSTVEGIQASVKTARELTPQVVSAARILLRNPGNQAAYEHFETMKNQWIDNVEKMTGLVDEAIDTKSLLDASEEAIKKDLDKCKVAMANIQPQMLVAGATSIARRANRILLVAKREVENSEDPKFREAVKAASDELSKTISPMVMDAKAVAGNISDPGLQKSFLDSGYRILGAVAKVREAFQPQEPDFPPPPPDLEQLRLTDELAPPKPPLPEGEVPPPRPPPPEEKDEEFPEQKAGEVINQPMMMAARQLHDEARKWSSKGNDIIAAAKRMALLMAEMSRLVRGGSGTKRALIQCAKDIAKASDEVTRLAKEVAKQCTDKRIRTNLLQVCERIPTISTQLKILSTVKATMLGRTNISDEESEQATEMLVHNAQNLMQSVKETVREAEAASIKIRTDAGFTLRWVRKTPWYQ

Molecule: MDDLDALLADLES [LD1]
- Kd [1]: 3.1 ± 0.3 µM

Molecule: SQLDSMLGSLQSD [LD5, synthetic peptide corresponding to the paxillin LD5 motif, FITC labelled N-terminally for anisotropy]
- binding to FAT-WT, in words [2]: no significant affinity

Molecule: vinculin tail domain (hVinculin891-1066) (from UniProt P18206-2 891-1066) (domain or fragment)
- percent of Vin-T in the ~ 2.5 S form at 100 µM [3]: 20%
- stoichiometry N [3]: 2
- Kd (paxillin LD1 peptide): 3.1 µM
- Kd (paxillin LD2 peptide): 1.7 µM

Molecule: CC(C)C[C@H](NC(=O)[C@H](CCC(=O)O)NC(=O)[C@H](CC(C)C)NC(=O)[C@H](CC(C)C)NC(=O)[C@H](CC(C)C)NC(=O)[C@H](CCCNC(=N)N)NC(=O)[C@H](CC(=O)O)NC(=O)[C@H](CC(C)C)NC(=O)[C@H](CCC(=O)O)NC(=O)[C@H](CO)NC(=O)[C@H](CC(C)C)NC(=O)[C@H](CC(N)=O)NC(=O)[C@@H](N)CO)C(=O)N[C@@H](CC(N)=O)C(=O)N[C@@H](C)C(=O)N[C@H](C(=O)N[C@@H](CCC(N)=O)C(=O)N[C@@H](Cc1c[nH]cn1)C(=O)N[C@@H](CC(N)=O)C(=O)O)C(C)C [LD2]
- Kd [4]: 1.3 ± 0.3 µM
- Kd [1]: 1.7 ± 0.3 µM

Molecule: SATRELDELMASLSD [LD4]
- Kd ([2]; 25 nM FITC labelled peptide, 20 mM Tris pH7.5, 150 mM NaCl, 1mM TCEP, 22 °C, one-site binding model, 4 measurements, read-out: Apparent KD for FAT-WT): 2.1 ± 0.4 µM

Molecule: full-length vinculin (hVinculin1-1066) (from UniProt P18206-2 1-1066) (natural protein)
- Kd (paxillin LD2 peptide): 1.3 µM

Molecule: SVESLLDELES [LD3, synthetic peptide corresponding to the paxillin LD3 motif, FITC labelled N-terminally for anisotropy]
- binding to FAT-WT, in words [2]: no significant affinity

Molecule: B1
- Kd [5]: 1.5 µM
- Kd [6]: 1.4 µM
- Kd [7]: 5.8 µM
- Kd [8]: 1.8 µM
- Kd [9]: 0.13 ± 0.01 µM

Molecule: SNLSELDRLLLELNAVQHN (also: FITC label, position not given here) [paxillin LD2 peptide]
- Kd [5]: 6 µM
- Kd [6]: 6 µM
- Kd [7]: 13.3 µM
- Kd [8]: 3.9 µM
- Kd [10]: 1.8 µM

Molecule: B2
- stoichiometry N [11]: 1 FAT per LD2/4 (2:2)
- fold lower affinity than for LD2 and LD4 (paxillin LD1 peptide): 10 fold
- Kd (paxillin LD2 peptide): 2 µM

Molecule: B3
- fold reduction of affinity against FAT-WT (paxillin LD2 peptide): 7 fold

Molecule: ATRELDELMASLS (also: FITC label, position not given here) [paxillin LD4 peptide]
- Kd [7]: 3.6 µM
- Kd [9]: ~2 µM

Molecule: MDDLDALLADLES (also: FITC label, position not given here) [paxillin LD1 peptide]
- Kd [5]: 24.7 µM
- Kd [6]: 19.3 µM
- Kd [7]: 31.4 µM
- Kd [10]: 18.3 µM

From PMC12013189, “Phospho-regulated tethering of focal adhesion kinase to vinculin links force transduction to focal adhesion signaling” (Cell Communication and Signaling : CCS, 2025)
